# Experimental data as given in article PMC9168731.
# Experiments:
# [1] = molecular target: S. pombe Arp2/3 complex (S. pombe) (UniProt Q9UUJ1)
# [2] = molecular target: S. pombe Arp2/3 complex (S. pombe) (UniProt Q9UUJ1); remark: listed apart in the source
# Chain of UniProt Q9UUJ1 (Q9UUJ1 whole entry, looked up, one chain of several): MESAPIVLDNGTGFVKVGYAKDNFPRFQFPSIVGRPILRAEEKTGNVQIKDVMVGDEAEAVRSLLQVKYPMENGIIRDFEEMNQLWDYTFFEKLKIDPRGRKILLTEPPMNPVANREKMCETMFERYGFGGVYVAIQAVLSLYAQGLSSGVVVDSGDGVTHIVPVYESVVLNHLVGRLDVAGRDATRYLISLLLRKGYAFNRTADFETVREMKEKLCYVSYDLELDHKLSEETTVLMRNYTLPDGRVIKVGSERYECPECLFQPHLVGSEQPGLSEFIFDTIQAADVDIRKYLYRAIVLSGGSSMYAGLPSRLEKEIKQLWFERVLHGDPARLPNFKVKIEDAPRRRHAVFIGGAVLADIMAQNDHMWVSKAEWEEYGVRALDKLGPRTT
Substance,"maximum polymerization rate, pyrene actin polymerization assay (3 μM 15% pyrene-labeled actin, 50 nM SpArp2/3 complex, 5 μM Dip1); 2.8 nM/s for reactions without Dip1 [1] [nM/s]","activation of Arp2/3 complex, pyrene actin polymerization assay (3 μM 15% pyrene-labeled actin, 50 nM SpArp2/3 complex, 5 μM Dip1) (% reduction compared to WT Dip1) [2]"
"Schizosaccharomyces pombe WDS protein Dip1, WT (from UniProt O74771 1-374) (natural protein)",20,
Dip1(R301E) (from UniProt O74771 1-374) (natural protein),,> 60
Dip1(N292K) (from UniProt O74771 1-374) (natural protein),8,
